{"source": "paper PMC8865451", "target": "cs130Fc (human) (UniProt P40189)", "assay": "SPR", "data": [{"substance": "hyper-IL-6 (HIL-6)", "values": [{"measurement": "Kd", "result": 0.059, "unit": "nM"}]}]}
